Consider 1 molecule from article PMC11432006 (2024).

In assay [1] the target is T1, GFP-BC2-tag.
T1 chain: PDRKAAVSHWQQ
Description: SPR. In general terms: Surface plasmon resonance follows binding to a sensor surface in real time, without labels.

Assay [2] addresses T1, GFP-BC2-tag. The experiment in a line: SPR; 5 mM DTT (reduced).

As usually defined, the Kd is the equilibrium constant for the complex coming apart.

B1: anti-BC2-tag VHH (BC2-Nb) (VHH)
VHH: QVQLVESGGGLVQPGGSLTLSCTASGFTLDHYDIGWFRQAPGKEREGVSCINNSDDDTYYADSVKGRFTIFMNNAKDTVYLQMNSLKPEDTAIYYCAEARGCKRGRYEYDFWGQGTQVTVSS
As for B1, the Kd came out at 9.28 nM in assay [1] and 55.2 nM in assay [2].
